Measurements: US20260015426A1 (23ANDME, published 2026)
Where a chain is given by its changes, count along the chain named. Numbers in names are those of the source.

T1: human IL1RAP (hu-IL1RAP) on human cells (human, UniProt Q9NPH3 21-570)
T1 sequence: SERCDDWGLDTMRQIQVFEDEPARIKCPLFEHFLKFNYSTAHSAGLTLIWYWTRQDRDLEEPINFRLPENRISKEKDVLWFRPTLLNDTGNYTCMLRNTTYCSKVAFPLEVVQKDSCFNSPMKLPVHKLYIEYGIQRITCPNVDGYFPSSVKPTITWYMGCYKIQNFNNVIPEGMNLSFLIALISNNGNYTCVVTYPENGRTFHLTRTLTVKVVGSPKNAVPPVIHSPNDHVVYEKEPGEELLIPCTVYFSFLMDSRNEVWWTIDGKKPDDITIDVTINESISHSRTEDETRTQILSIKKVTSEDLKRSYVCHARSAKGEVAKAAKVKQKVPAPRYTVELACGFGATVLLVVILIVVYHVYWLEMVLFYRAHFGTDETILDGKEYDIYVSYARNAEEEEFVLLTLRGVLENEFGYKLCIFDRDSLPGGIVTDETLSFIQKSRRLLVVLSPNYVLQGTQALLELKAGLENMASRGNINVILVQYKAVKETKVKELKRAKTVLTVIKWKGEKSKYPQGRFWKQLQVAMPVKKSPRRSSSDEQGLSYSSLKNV

T2: hu-M-IL1RAP construct, positions S21-T367 (extracellular domain of the membrane form of human IL1RAP) (human, UniProt Q9NPH3 21-367)
T2 construct: Biotinylated when captured on the Biacore chip
T2 sequence: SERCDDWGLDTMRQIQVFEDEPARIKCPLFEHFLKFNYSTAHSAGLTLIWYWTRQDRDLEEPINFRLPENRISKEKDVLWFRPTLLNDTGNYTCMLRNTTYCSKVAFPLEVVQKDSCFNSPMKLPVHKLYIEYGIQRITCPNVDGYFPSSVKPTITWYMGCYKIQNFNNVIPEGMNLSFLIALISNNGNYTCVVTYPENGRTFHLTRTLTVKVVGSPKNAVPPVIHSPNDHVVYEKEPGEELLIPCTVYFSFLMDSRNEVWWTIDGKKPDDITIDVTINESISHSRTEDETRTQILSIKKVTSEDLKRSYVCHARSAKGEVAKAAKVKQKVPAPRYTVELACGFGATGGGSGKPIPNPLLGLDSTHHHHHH

B1: m11C5 (recombinant murine 11C5) (antibody, mouse IgG2a, V domains shown)
VH: EVQLVESGGGLVKPGGSLKLSCAASGFTFSNYAMSWVRQTPEKRLEWVATVTEGGDYNYCLDDVKGRFTISRDNANDNLYLQMSHLKSEDSARYYCARDRWPYFFDYWGQGTTLTVSS
VL: DIQMTQSPASLSVSVGETVTITCRASENIYSNLAWYQQKQGRSPQLLVYGAKNLADGVPSRFSGSGSGTQYSLNINSLQSEDFGTYYCQHFWTTPRTFGGGTKLEIK
notes: Murine IgG2a constant domains
B2: h11C5_C59Y (C59Y variant of h11C5) (antibody, human IgG1, V domains shown)
VH: EVQLVESGGGLVQPGGSLRLSCAASGFTFSNYAMSWVRQAPGKGLEWVATVTEGGDYNYYLDDVKGRFTISRDNAKNSLYLQMNSLRAEDTAVYYCARDRWPYFFDYWGQGTLVTVSS
VL: DIQMTQSPSSLSASVGDRVTITCRASENIYSNLAWYQQKPGKAPKLLVYGAKNLADGVPSRFSGSGSGTDYTLTISSLQPEDFATYYCQHFWTTPRTFGGGTKVEIK
notes: Human IgG1/kappa constant domains
B3: h11C5 (humanized 11C5 mAb) (antibody, human IgG1, kappa, N297G, V domains shown)
VH: B2 VH with Y60C
VL: DIQMTQSPSSLSASVGDRVTITCRASENIYSNLAWYQQKPGKAPKLLVYGAKNLADGVPSRFSGSGSGTDYTLTISSLQPEDFATYYCQHFWTTPRTFGGGTKVEIKR
notes: Human IgG1/kappa
B4: K13/H3 Fab (VL-A51Y/W92I, VH-V51S) (Fab, V domains shown)
VH: B2 VH with V51S
VL: B2 VL with A43S, A51Y, W92I
notes: Fab with 8xHis tag
B5: K17/H2 Fab (VL-A51Y/W92K, VH-R96D) (Fab, V domains shown)
VH: B2 VH with R100D
VL: B2 VL with A43S, A51Y, W92K
notes: Fab with 8xHis tag
B6: K17/H3 Fab (VL-A51Y/W92K, VH-V51S) (Fab, V domains shown)
VH: B2 VH with V51S
VL: B2 VL with A43S, A51Y, W92K
notes: Fab with 8xHis tag
B7: c11C5_C59A (antibody, IgG1, V domains shown)
VH: B1 VH with C60A
VL: B1 VL
notes: Murine VL and VH, human CL and IgG1 CH1-CH3 domains
B8: c11C5 (chimeric 11C5) (antibody, IgG1, V domains shown)
VH: B1 VH
VL: B1 VL
notes: as for B7
B9: m11C5_C59A (antibody, mouse IgG2a, V domains shown)
VH: B1 VH with C60A
VL: B1 VL
notes: Murine IgG2a constant domains
B10: m11C5_C59S (antibody, mouse IgG2a, V domains shown)
VH: B1 VH with C60S
VL: B1 VL
notes: Murine IgG2a constant domains
B11: m11C5_C59T (antibody, mouse IgG2a, V domains shown)
VH: B1 VH with C60T
VL: B1 VL
notes: Murine IgG2a constant domains
B12: m11C5_C59V (antibody, mouse IgG2a, V domains shown)
VH: B1 VH with C60V
VL: B1 VL
notes: Murine IgG2a constant domains
B13: m11C5_C59Y (antibody, mouse IgG2a, V domains shown)
VH: B1 VH with C60Y
VL: B1 VL
notes: Murine IgG2a constant domains
B14: h11C5_C59A (antibody, human IgG1, V domains shown)
VH: B2 VH with Y60A
VL: B2 VL
notes: as for B2
B15: h11C5_C59T (antibody, human IgG1, V domains shown)
VH: B2 VH with Y60T
VL: B2 VL
notes: as for B2
B16: h11C5_C59S (antibody, human IgG1, V domains shown)
VH: B2 VH with Y60S
VL: B2 VL
notes: as for B2

Each binder was assayed against T1, human IL1RAP (hu-IL1RAP) on human cells (assay: cell-based or functional assay).
In the case of B1, the “HEK-Blue, IL-1β, IC50” value is reported as 0.705 nM and the “HEK-Blue, IL-33, IC50” value is reported as 2.25 nM. In the case of B2, the “HEK-Blue, IL-1β, IC50” value is reported as 1.03 nM and the “HEK-Blue, IL-33, IC50” value is reported as 3.75 nM. With B3 the “HEK-Blue, IL-1β, IC50” value was 3.12 nM, the “HEK-Blue, IL-33, % inhibition at 100 nM” value was 80% and the “HEK-Blue, IL-33, IC50” value was 24 nM.

Molecular target: T1, human IL1RAP (hu-IL1RAP) on human cells
Assay: cell-based or functional assay
Remark: another data set of the same source
In the case of B4, the “HEK-Blue, IL-1β, % inhibition at 100 nM (Fab)” value (shortened to “HEK-Blue, IL-1β, % inhibition”) is reported as 100%, the “HEK-Blue, IL-1β, IC50 (Fab)” value is reported as 0.898 nM and the “HEK-Blue, IL-33, % inhibition at 100 nM (Fab)” value is reported as 99%. The “HEK-Blue, IL-33, IC50 (Fab)” value was 2.07 nM, the “HEK-Blue, IL-36α, % inhibition at 100 nM (Fab)” value (shortened to “HEK-Blue, IL-36α, % inhibition”) was 98% and the “HEK-Blue, IL-36α, IC50 (Fab)” value was 0.462 nM. For B5, the “HEK-Blue, IL-1β, % inhibition” value was 100%, the “HEK-Blue, IL-1β, IC50 (Fab)” value was 1.86 nM and the “HEK-Blue, IL-33, % inhibition at 100 nM (Fab)” value was 97%. The “HEK-Blue, IL-33, IC50 (Fab)” value was 4.71 nM, the “HEK-Blue, IL-36α, % inhibition” value was 100% and the “HEK-Blue, IL-36α, IC50 (Fab)” value was 0.93 nM. B6 was tested, and the “HEK-Blue, IL-1β, % inhibition” value was 100%, the “HEK-Blue, IL-1β, IC50 (Fab)” value was 1.32 nM and the “HEK-Blue, IL-33, % inhibition at 100 nM (Fab)” value was 98%. For the same binder, the “HEK-Blue, IL-33, IC50 (Fab)” value was 3.53 nM, the “HEK-Blue, IL-36α, % inhibition” value was 100% and the “HEK-Blue, IL-36α, IC50 (Fab)” value was 0.8 nM.

The binders below were run against T2, hu-M-IL1RAP construct, positions … (assay: SPR, Fab analyte, 37 C).
Description: Surface plasmon resonance (SPR) analysis was used to determine binding affinity for hu-M-IL1RAP of the purified Fabs containing the selected single, double, and triple mutations in either the VL or VH regions using a BIACORE™ 8K instrument. […] For kinetics measurements, 5 nM biotinylated hu-M-IL1RAP was captured at 10 μL/min to achieve ˜50 response units in the second flow cell (FC2). FC1 was kept as a reference. […] The sensorgrams were recorded and subjected to reference and buffer subtraction before data analysis with the BIACORE® 8K Evaluation Software (version 1.1.1.7442). Association rates (kₒₙ) and dissociation rates (koff) were calculated using a simple one-to-one Langmuir binding model. The equilibrium dissociation constant (KD) was calculated as the ratio of koff/kₒₙ.
Binder B4 has a Kd of 0.0211 nM, a koff of 0.000109 s⁻¹ and a kon of 5.17e+06 M⁻¹ s⁻¹. B5 gave a Kd of 0.0293 nM, a koff of 0.000121 s⁻¹ and a kon of 4.15e+06 M⁻¹ s⁻¹. For B6, the Kd was 0.0315 nM, the koff was 0.00012 s⁻¹ and the kon was 3.81e+06 M⁻¹ s⁻¹.

These binders were tested against T2, hu-M-IL1RAP construct, positions … (assay: BLI (OCTET), mAb captured, 25 C).
Description: All samples were placed in black 96-well plates and the experiment was performed at 25° C. […] The biosensors were equilibrated in experimental buffer at 25° C. for ten minutes prior to starting the experiment.
The resulting BLI signal from analyte association and dissociation from the immobilized antibody was analyzed using the Octet Data Analysis software (Pall ForteBio). First, a reference subtraction was performed on all recorded traces using the reference well (biosensor that underwent the same steps as experimental wells but no analyte for the Association step), then all the traces were aligned to the beginning of the Association step.
Binder B7 has a Kd of 0.756 nM. Work on B8 yielded a Kd of 0.699 nM. For B1, the Kd was 0.37 nM. In the case of B9, the Kd is reported as 0.513 nM. With B10 the Kd was 0.598 nM. In the case of B11, the Kd is reported as 1.38 nM. B12 was tested, and the Kd was 0.604 nM. Work on B13 yielded a Kd of 0.524 nM. Binder B2 has a Kd of 1.34 nM. Work on B14 yielded a Kd of 2.06 nM. Work on B15 yielded a Kd of 3.26 nM. Binder B3 has a Kd of 1.06 nM. B16 was tested, and the Kd was 1.08 nM.
